In the RNAGym collection of RNA variant scans (doi:10.7554/elife.90254):

B1: LINE1-full (parent)
chain: UACGUAGGUGGUUUUCCCCUGAUAGUGCUAAGGGGGCCUGGAAGUUUGGACUGGGCAGAGCUCAACACAGCGUGGCAAAGUGGCUGUGGCUAGACUGCCUCUCUGGAUUCCUCGUCACUCAGCAGGGCAUCUCUGAGAGAAAUGCC

Variants of: B1
Assay: self-cleavage, relative activity (ratio to wild type); higher = more cleavage; in vitro, sequencing; the parent is a self-cleaving ribozyme

Variant | self-cleavage
U29C U109C | 0.91
G21U U47C | 0.72
U134A A136U | 1.27
A30G A42C | 0.59
C18U U104C | 0.23
G60A A77G | 0.03
U14A U45G | 0.77
A79G G144A | 1.5
A42U A77G | 1.72
U108C U143C | 1.75
C66U A124G | 0.03
C63U G74A | 0.22
G40A U62C | 0.04
U20G U73C | 1.39
C90A U134A | 0.04
U13G U45C | 0.78
G7A U52A | 0.89
A94U A138G | 0.32
U39C A65U | 0.12
C84A U130C | 0.15
A50C U104A | 0.87
U62C U143G | 0.08
U29C A136U | 1.54
U29C A94G | 0.54

Variant | self-cleavage
U47A C84A | 0.14
U1C A43C | 0.37
G49A U87C | 0.21
U14A U130C | 0.83
G4C U85C | 0.13
C38A | 1.28
G83A U91C | 0.24
U1C U73G | 1.53
U15A U119C | 0.19
U130C G144A | 1.57
A30G C110U | 1.25
C71A U73C | 0.31
A92G C98A | 0.08
U15C U130G | 1.49
U45C C51U | 1.58
U96C A136G | 0.15
G21A U62C | 0.05
U26C A77U | 1.55
A107C U119C | 2.19
G93A U115C | 0.04
A79G U115C | 1.32
G33A U143C | 1.44
G88A G97A | 0.04
A50G A78U | 1.2

Variant | self-cleavage
U96G U109A | 0
U62C A79G | 0.06
U62C A79U | 0.03
C61U C76U | 0.04
C95U U104A | 0.1
A24G U102C | 1.73
G36A A42G | 1.07
A64C U130C | 0
C38U U73C | 1.76
U45C C128U | 1.32
A78G C133U | 1.27
A22G A50G | 0.97
U109A C131A | 1.59
A57U U108C | 0.17
A94C | 0.06
A64G A94G | 0.06
U29C U45C | 1.08
U12A U100A | 0.87
G34C U96C | 0.14
A67U U104C | 0.25
A69G C146U | 0.51
C101U U102C | 1.49
A138G A140G | 1.52
G48A A65G | 0.03

Variant | self-cleavage
A117U G122U | 1.72
U12C U13A | 0.27
U39A U85C | 0.19
A94G C99U | 0.19
G49U U91C | 0.46
A69G A79C | 0.17
G48A A77G | 1.73
U87A U104A | 0.06
C3U A57U | 0.17
A92G A121G | 0.11
U13A A67U | 0.07
A24G A30G | 0.42
U9C G82U | 1.34
U13C G53C | 2.02
A69C A138G | 0.16
A117U U132C | 1.37
U29C G127C | 1.58
U29C A67G | 0.76
C51U U132C | 0.69
C71U U81C | 0.74
U13A G83A | 0.58
C19U C133A | 0.59
G106U A141G | 0.83
A42G A138G | 1.34

Variant | self-cleavage
U1C C133U | 1.16
U15A A43G | 0.97
C38U U112C | 1.35
U12A G49A | 1.05
A43U C116U | 1.12
A79U A136U | 2.6
C17U A140G | 1.02
A24G A65C | 0.16
U52A U102C | 0.88
U14A U109C | 1.05
U14C G32C | 1.58
G114A G127A | 1.74
A59G C90U | 0.03
U14A U39C | 0.95
U39C U119C | 1.38
A64U A124G | 0.3
U81C G105A | 1.06
C131A A140G | 1.94
U20A C120U | 1.32
C37U A59G | 0.07
G40A U87A | 0.06
U91A U115C | 0.78
G33A U119C | 0.66
C56G A67G | 0

Variant | self-cleavage
G48U U81A | 1.8
C56U U115C | 0.19
A94G U143C | 0.43
A43G A78U | 1.86
A22G A78U | 1.85
U29C A129G | 2.12
U9C G89C | 0.05
C90U G114U | 0.03
A65U G127A | 0.68
U73A U119C | 1.86
U73C A136U | 1.76
G125C A138G | 1.9
U5A U62C | 0.05
U1G U13G | 1.14
G53A G126U | 1.31
U14A A30G | 1.27
A43C A78U | 2.11
U96A U134A | 0.08
U14C G97A | 0.09
U47C A65G | 0.09
C71G U130C | 0.45
A24U A140G | 1.75
G35A A64U | 0.31
A117U A138G | 1.52

Variant | self-cleavage
U23A U143A | 2.26
U20C C146U | 1.27
A79U A142G | 2.33
A50G A67C | 0
A67G U112A | 0.53
A31C A78G | 1.1
U29G U112C | 1.36
U104A U109C | 1.11
A22G A57U | 0.2
G60A C111U | 0.04
U81C U108C | 1.95
C38U A67G | 0.42
A67G A117G | 0.52
U62C U108G | 0
C111U A141G | 0.45
A59G U134C | 0.15
C63U U96A | 0.05
C19G A117U | 1.69
G8C A140G | 2.03
G72A C84U | 0.19
A22G C95U | 0.53
U26C A59U | 0.84
G7U A30G | 0.78
A24U A121U | 0.55

Variant | self-cleavage
A79G A136U | 0.91
U14C G25C | 0.5
A77G U119G | 1.39
A2G G105A | 1.27
G74A U87C | 0.08
A59U U87A | 0.07
G44U U115A | 1.17
U14G U102G | 0.66
A78U U112C | 1.91
U134A A140C | 0.55
A59G A67U | 0.06
A67U U102C | 0.1
A24G U119C | 0.83
A64U C68A | 0.01
U112A A140U | 1.79
U112C C131U | 1.87
U85C A124U | 0.21
A57U A69G | 0.08
C19U U39C | 0.65
A107G A121U | 1.28
A78G U119C | 1.55
A129G U130A | 1.19
A77U A141G | 1.4
A59G A77C | 0.33

Variant | self-cleavage
A94U U143C | 0.24
C101U G126A | 1.54
U23A C118U | 1.22
U20A A140U | 1.7
A43G A77G | 2.07
C3A U85A | 0.13
U87A A140G | 0.07
C84U U132C | 0.14
C76U U132C | 1.8
U47A U73A | 1.11
A24G U29A | 1.3
G89A A142G | 0.03
U9G U108C | 1.37
U5A G44A | 0.81
A22U A129U | 1.47
A69G U112A | 0.74
A65G A140U | 0.07
C68U U109A | 0.21
A67G C68A | 0.05
A94C U119C | 0.1
U39C U115C | 1.37
A77G G83U | 1.28
A64G A129U | 0.25
A43C A138G | 1.02

Variant | self-cleavage
G72A U102A | 1.66
U46C A77C | 1.01
A2G U85A | 0.25
G97A | 0.11
U23C A138U | 1.84
A79C U87A | 0.18
G53A | 1.32
A94G A117G | 0.36
A64U U96A | 0.06
G8A A121C | 0.46
G122A U143C | 1.11
C76U U104C | 2.05
U26C A129G | 1.41
U20C U112A | 0.61
A2U U104A | 0.26
U13A G40A | 1.19
A59G U132C | 0.11
C101A A141G | 1.64
G83U A124G | 0.36
U115A U132A | 1.03
U12G C56U | 0.22
A43G A79G | 0.97
A59U C123U | 0.8
U1A A59U | 0.91

Variant | self-cleavage
U87A G106A | 0.06
A22C U39C | 2.06
G40A U85G | 0.04
U9G A77U | 1.44
U1A U29C | 0.84
U45C C68U | 0.16
G7C U12G | 1.19
U108C G127A | 1.64
A94C U134C | 0.09
U23A U130C | 1.44
U5A G125U | 0.15
U23C U62A | 0.06
A79G U100C | 1.46
U73C U104G | 1.71
G74A A136U | 0.91
U20C C116A | 1.5
G55A A57G | 0.15
A69U U132C | 0.07
A2G U87A | 0.32
A67G A79U | 0.73
U26C G127A | 1.37
A6U A124U | 1.51
U9A U52A | 0.9
A141C | 1.04

Variant | self-cleavage
C84U U143C | 0.1
U9A U39A | 1.16
U15C U91A | 0.81
G8A U119A | 2.47
U39A A136G | 1.49
G74U U102A | 1.79
A22G C90U | 0.04
C37G A57U | 0.1
A69G A136G | 0.42
U9C U112C | 1.45
U9C U112A | 1.46
U15C C51A | 1.37
U13C G135A | 0.75
U52A A59U | 0.4
U15C A69U | 0.09
A6U C66U | 0.09
C19U A50G | 0.77
U29C A50U | 1.14
U1G U96C | 0.87
G114A A136U | 2.15
A24G A78G | 1.19
U62G A69U | 0.05
U26A U119A | 0.78
U13C G97A | 0.08

Variant | self-cleavage
C18A U73C | 1.23
G40A A117U | 1.43
U14C C145G | 0.63
A65G A94G | 0.03
U102C G105A | 2.14
A42G A50G | 0.91
U119A A141U | 1.29
A42U A124U | 1.09
U29C A64C | 0.61
G32A G83U | 0.83
G40U A79G | 1.09
U100A U108G | 0
G125U U134G | 1.26
G35U U102C | 1.73
C19U G93A | 0.07
U29A U112C | 0.43
A24U A124G | 1.06
C16U U108A | 1.14
U46C G89A | 0.04
U1A A136G | 1.71
U14A A136G | 0.97
U26A A30G | 0.84
U81C G83A | 1.46
U73C C111U | 2.14

Variant | self-cleavage
C18U U52A | 1.54
A2G U26G | 0.21
A24G A57G | 1.14
U9C C76G | 2.04
U9G A31C | 1.72
A22U G49A | 1.08
U39A U47C | 1.55
A94G C145U | 0.17
A77G G126A | 2.42
U9C A77G | 1.92
C51U A77G | 2.03
G33U A129G | 1.34
U12C G75A | 1.46
U26A U47G | 1.6
A6G U81C | 1.78
G88C A141G | 0.14
U23C A92G | 0.09
U15C A64C | 0.64
A69G U104C | 0.71
A50G U52C | 1.08
A2G U130C | 0.56
U13G G58A | 0.17
